Patent US20230026259A1, “CA2 COMPOSITIONS AND METHODS FOR TUNABLE REGULATION” (Obsidian Therapeutics, Inc., priority 2019, published 2023)

Test system: T cells
Experiment: CD40L expression of CA2 regulated CD40L constructs in T cells by FACS (dose response, time course)
Assay type: cell-based
Conditions: for CD40L positive / MFI: Ligand N/A; for CD40L MFI / Percentage CD40L positive cells: constitutive CD40L
Source text: CD40L constructs regulated by Carbonic anhydrase DDs were generated and cloned into lentiviral vectors. Purified T cells were thawed and cultured with aCD3 aCD28 Dynabeads (in the ratio of 3 beads to 1 T cell).
The constructs were transduced in T cells the next day. […]

B1: OT-001661: constitutive CD40L control (protein)
chain: MHMIETYNQTSPRSAATGLPISMKIFMYLLTVFLITQMIGSALFAVYLHRRLDKIEDERNLHEDFVFMKTIQRCNTGERSLSLLNCEEIKSQFEGFVKDIMLNKEETKKENSFEMQKGDQNPQIAAHVISEASSKTTSVLQWAEKGYYTMSNNLVTLENGKQLTVKRQGLYYIYAQVTFCSNREASSQAPFIASLCLKSPGRFERILLRAANTHSSAKPCGQQSIHLGGVFELQPGASVFVNVTDPSQVSHGTGFTSFGLLKL
- CD40L positive (Example 9, All Cells): 98%
- MFI (Example 9, All Cells): 20451
- CD40L positive (Example 9, CD4+): 98.7%
- MFI (Example 9, CD4+): 24489
- CD40L positive (Example 9, CD8+): 97.8%
- MFI (Example 9, CD8+): 14352
- CD40L MFI (time course 2 hours, CD4+): 4042
- Percentage CD40L positive cells (time course 2 hours, CD4+): 72.8%
- CD40L MFI (time course 2 hours, CD8+): 2212
- Percentage CD40L positive cells (time course 2 hours, CD8+): 56.9%
- CD40L MFI (time course 4 hours, CD4+): 4651
- Percentage CD40L positive cells (time course 4 hours, CD4+): 77%
- CD40L MFI (time course 4 hours, CD8+): 2994
- Percentage CD40L positive cells (time course 4 hours, CD8+): 63.2%
- CD40L MFI (time course 6 hours, CD4+): 3156
- Percentage CD40L positive cells (time course 6 hours, CD4+): 67.2%
- CD40L MFI (time course 6 hours, CD8+): 1773
- Percentage CD40L positive cells (time course 6 hours, CD8+): 48.5%
- CD40L MFI (time course 24 hours, CD4+): 9491
- Percentage CD40L positive cells (time course 24 hours, CD4+): 93.3%
- CD40L MFI (time course 24 hours, CD8+): 3563
- Percentage CD40L positive cells (time course 24 hours, CD8+): 71.2%
- CD40L MFI (time course 48 hours, CD4+): 5639
- Percentage CD40L positive cells (time course 48 hours, CD4+): 88.5%
- CD40L MFI (time course 48 hours, CD8+): 2313
- Percentage CD40L positive cells (time course 48 hours, CD8+): 71.1%
